Results as given in PMC11092324.

Biological target: CV-1A1 Fv-clasp (UniProt Q13043)
Assay: ELISA; sandwich ELISA: CV-1A1 Fv-clasp or scFv (0.7 µM in 50 mM carbonate buffer pH 9.6) coated on high-binding microplates, VLPs added in twofold serial dilutions, 37°C 2 h, detected with rabbit anti-VLP antisera; data fit to the Michaelis-Menten equation, Km taken as Kd (affinity or avidity); concentration counted as VP1

“GI.4 Chiba virus-like particles (VP1 major capsid protein of the norovirus GI.4 Chiba strain) (complex)” showed a Kd of 3.77 nM.
